Data taken from PMC11281638.

Biological target: Sso7d-IN (full-length HIV-1 integrase fused to Sso7d) (not stated | HIV-1)
Test: semi-quantitative SDS-PAGE (Coomassie) of the purified complex

| Substance | stoichiometry N (CTD per full-length IN) | stoichiometry N (IBD per full-length IN) |
| --- | --- | --- |
| IN-CTD (HIV-1 integrase residues 185-288), His-tagged (from UniProt P12497 186-289) (domain or fragment) | 0.3 | – |
| LEDGF-IBD (lens epithelium-derived growth factor IN-binding domain, residues 307-460), His-tagged (from UniProt O75475 307-460) (domain or fragment) | – | 1 |
